Values quoted from earlier work as cited in PMC12336664.

Target: FXa (Homo sapiens) (UniProt P00742)
Chain of UniProt P00742 (P00742 41-179, chain 1 of 2): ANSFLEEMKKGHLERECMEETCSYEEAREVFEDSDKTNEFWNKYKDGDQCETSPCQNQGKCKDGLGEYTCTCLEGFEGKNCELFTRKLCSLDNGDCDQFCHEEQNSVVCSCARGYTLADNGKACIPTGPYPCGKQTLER
Chain of UniProt P00742 (P00742 235-488, chain 2 of 2): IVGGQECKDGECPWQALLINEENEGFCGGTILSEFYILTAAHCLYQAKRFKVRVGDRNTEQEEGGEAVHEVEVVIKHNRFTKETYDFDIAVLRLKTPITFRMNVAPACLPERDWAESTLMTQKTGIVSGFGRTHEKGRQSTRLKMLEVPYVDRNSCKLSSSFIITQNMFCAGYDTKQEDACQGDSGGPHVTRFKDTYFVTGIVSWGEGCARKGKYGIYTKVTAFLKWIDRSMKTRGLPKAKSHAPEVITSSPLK

Kd: 20 pM
Substance: TFPIα (from UniProt P10646)
